Laboratory results taken from US20180094053A1 (XOMA US, published 2018).
Like-named read-outs stand apart in the source and are kept apart here.

T1: Mouse IL-2 (mouse, UniProt P04351 21-169)
T1 sequence (looked up): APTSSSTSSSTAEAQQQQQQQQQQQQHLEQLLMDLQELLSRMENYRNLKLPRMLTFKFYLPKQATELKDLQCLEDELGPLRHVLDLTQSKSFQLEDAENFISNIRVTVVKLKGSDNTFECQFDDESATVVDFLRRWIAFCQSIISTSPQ

T2: human IL-2 Rβγ (IL-2 Rβ and γc) on cells (human, UniProt P14784 27-551; P31785 23-369)
T2 construct: whole, on cells; on CD25-depleted human primary NK cells in the pSTAT5 assay; also called CHO/Rβγ; CHO/IL-2 Rβγ (#20-21)
T2 sequence (looked up) 1: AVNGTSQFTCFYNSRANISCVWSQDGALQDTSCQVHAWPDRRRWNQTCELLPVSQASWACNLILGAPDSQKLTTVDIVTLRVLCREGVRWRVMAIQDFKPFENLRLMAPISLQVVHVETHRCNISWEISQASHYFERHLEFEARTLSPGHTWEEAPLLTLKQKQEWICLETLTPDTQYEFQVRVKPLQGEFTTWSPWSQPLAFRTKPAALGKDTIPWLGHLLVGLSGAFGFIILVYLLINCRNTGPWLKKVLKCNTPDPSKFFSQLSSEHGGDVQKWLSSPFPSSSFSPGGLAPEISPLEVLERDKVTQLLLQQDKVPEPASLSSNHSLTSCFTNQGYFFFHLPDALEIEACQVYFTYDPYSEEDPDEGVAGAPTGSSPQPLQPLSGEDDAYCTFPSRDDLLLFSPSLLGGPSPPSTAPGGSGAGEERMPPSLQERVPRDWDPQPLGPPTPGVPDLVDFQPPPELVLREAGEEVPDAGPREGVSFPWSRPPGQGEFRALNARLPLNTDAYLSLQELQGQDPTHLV
T2 sequence (looked up) 2: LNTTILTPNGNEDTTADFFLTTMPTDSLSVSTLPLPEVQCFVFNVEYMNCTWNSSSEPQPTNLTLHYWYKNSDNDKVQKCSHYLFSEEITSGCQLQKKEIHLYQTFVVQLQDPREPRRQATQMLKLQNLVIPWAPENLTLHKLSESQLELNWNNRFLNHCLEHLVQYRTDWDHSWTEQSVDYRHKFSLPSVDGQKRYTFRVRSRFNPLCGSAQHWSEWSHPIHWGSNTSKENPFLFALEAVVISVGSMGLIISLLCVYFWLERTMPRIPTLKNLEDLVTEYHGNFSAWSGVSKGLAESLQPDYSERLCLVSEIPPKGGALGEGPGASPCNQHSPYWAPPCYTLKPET

T3: CHOk1-IL2Ralpha
T3 construct: clone number not given; also called CHO/Rα; CHO/IL-2 Rα
T3 chain: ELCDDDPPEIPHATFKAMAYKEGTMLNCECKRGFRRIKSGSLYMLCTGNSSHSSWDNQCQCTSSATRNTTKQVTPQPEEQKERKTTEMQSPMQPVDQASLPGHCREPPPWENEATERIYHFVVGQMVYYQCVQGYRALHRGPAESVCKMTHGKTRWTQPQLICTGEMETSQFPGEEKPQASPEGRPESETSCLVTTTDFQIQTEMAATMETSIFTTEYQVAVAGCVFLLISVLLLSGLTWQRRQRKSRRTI

T4: Rat IL-2 (rat, UniProt P17108 21-155)
T4 sequence (looked up): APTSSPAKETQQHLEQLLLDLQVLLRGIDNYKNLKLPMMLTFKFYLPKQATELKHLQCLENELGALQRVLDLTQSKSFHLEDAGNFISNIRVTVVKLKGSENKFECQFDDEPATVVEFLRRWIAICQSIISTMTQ

T5: Rabbit IL-2 (rabbit, UniProt O77620 21-153, limits assumed)
T5 sequence (looked up): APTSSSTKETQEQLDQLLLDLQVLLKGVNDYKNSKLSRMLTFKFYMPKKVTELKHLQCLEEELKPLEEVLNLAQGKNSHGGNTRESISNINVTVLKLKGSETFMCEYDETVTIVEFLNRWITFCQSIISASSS


Legend:
Mouse IL-2 [1] = target: T1, Mouse IL-2; assay: listed for comparison in the SPR species cross-reactivity table
Recombinant human IL-2 [2] = target: T6, Recombinant human IL-2 (human, UniProt P60568 21-153); assay: listed for comparison in the SPR table; method for this antibody not described
Recombinant human IL-2 [3] = target: T6, Recombinant human IL-2; assay: cell-based or functional assay
[4] = target: T2, human IL-2 Rβγ (IL-2 Rβ and γc) on cells; assay: flow cytometry, IgG binding (MFI); antibody titrated on CHOk1-IL2Rbeta-gamma (20-21) cells without IL2
Experimental: (§1) After phage-derived antibody fragments were reformatted into full-length human IgGs, the purified antibodies were screened on CHO/Rα, CHO/Rβ, CHO/Rβγ, and parental CHO-K1 cells grown and stained as described above. […] This was allowed to incubate at 4° C. for 1 to 1.5 hours. Bound antibody was detected by the addition of anti-human heavy chain and light chain (Jackson Immuno Research #109-136-088) at 1:1000 and incubating at 4° C. for 30 minutes to 1 hour. Samples were analyzed using BD FACs Canto flow cytometer.

CHOk1-IL2Ralpha = target: T3, CHOk1-IL2Ralpha; assay: flow cytometry, IgG binding (MFI); antibody titrated on CHOk1-IL2Ralpha cells without IL2
Experimental: as §1

Mouse IL-2 [5] = target: T1, Mouse IL-2; assay: SPR (Biacore 4000), IgG captured on anti-human IgG Fc, IL-2 30 nM to 1 nM; affinity estimate
Experimental: (§2) Antibody affinities were measured by SPR using the Biacore 4000 with a standard capture methodology. Briefly, anti-human IgG (Fc specific) from an anti-human antibody capture kit (Biacore) was immobilized onto spots 1, 2, 4, and 5 of all four flow cells of a CM-5 sensor chip by amine coupling according to the manufacturer's instructions. Running buffer was HBS-EP+ with 1% BSA. […] Data were analyzed using the Biacore 4000 Evaluation software.
(§3) These sequences were imported into vector NTI® (Lifetech) and aligned using the alignx tool.

Rat IL-2 [6] = target: T4, Rat IL-2; assay: as above
Experimental: as §2, §3

Rabbit IL-2 = target: T5, Rabbit IL-2; assay: as above
Experimental: as §2, §3

Recombinant human IL-2 [7] = target: T6, Recombinant human IL-2; assay: cell-based or functional assay; remark: listed apart in the source
Recombinant human IL-2 [8] = target: T6, Recombinant human IL-2; assay: cell-based or functional assay; remark: listed apart in the source
Recombinant human IL-2 [9] = target: T6, Recombinant human IL-2; assay: cell-based or functional assay; remark: listed apart in the source
Recombinant human IL-2 [10] = target: T6, Recombinant human IL-2; assay: cell-based or functional assay; remark: listed apart in the source
Recombinant human IL-2 [11] = target: T6, Recombinant human IL-2; assay: SPR (Biacore 4000), IgG captured on anti-human IgG Fc, rhIL-2 0.11-10 nM
Experimental: as §2

Recombinant human IL-2 [12] = target: T6, Recombinant human IL-2; assay: cell-based or functional assay; remark: listed apart in the source
Mouse IL-2 [13] = target: T1, Mouse IL-2; assay: SPR (Biacore 4000), IgG captured on anti-human Fc, IL-2 injected
Rat IL-2 [14] = target: T4, Rat IL-2; assay: as above

Row | Molecule | binding result [4] | binding result (CHOk1-IL2Ralpha) | Kd (Mouse IL-2 [5]) | Kd (Rabbit IL-2) | Fold EC50 shift of IL-2-induced proliferation, CTLL-2 (muRαβγ) (Recombinant human IL-2 [7]) | pSTAT5a,b Ratio of EC50s (Rαβγ/Rβγ), murine cells (Recombinant human IL-2 [8]) | pSTAT5a,b fold EC50 shift, CTLL-2 (muRαβγ) (Recombinant human IL-2 [8]) | pSTAT5a,b fold EC50 shift, Mouse Primary NK cells (muβγ) (Recombinant human IL-2 [8]) | pSTAT5a,b Ratio of EC50s (Rαβγ/Rβγ), human cells (Recombinant human IL-2 [9]) | pSTAT5a,b fold EC50 shift, Human Primary NK cells (huRβγ) (Recombinant human IL-2 [9]) | pSTAT5a,b fold EC50 shift, NK92 (huRαβγ) (Recombinant human IL-2 [9]) | EC50 of IL-2-induced pSTAT5a,b in CD25-depleted human primary NK cells with 100 nM antibody (Recombinant human IL-2 [10]) | EC50 of IL-2-induced pSTAT5a,b in NK-92 cells with 100 nM antibody (Recombinant human IL-2 [10]) | EC50 of IL-2-induced pSTAT5a,b in mouse primary NK cells with 100 nM antibody (Recombinant human IL-2 [10]) | Kd (Recombinant human IL-2 [11]) | koff (Recombinant human IL-2 [11]) | kon (Recombinant human IL-2 [11]) | Fold EC50 shift of IL-2-induced proliferation, BaF3/IL-2 HuRβγ (Recombinant human IL-2 [12]) | Fold EC50 shift of IL-2-induced proliferation, NK92 (huRαβγ) (Recombinant human IL-2 [12]) | Ratio (huRαβγ/Rβγ) of fold EC50 shifts, proliferation (Recombinant human IL-2 [12]) | also measured
1 | MAB602 (antibody) |  |  |  |  |  |  |  |  |  |  |  |  |  |  |  |  |  |  |  |  | Kd (Mouse IL-2 [1]): 10000 pM; Kd (Recombinant human IL-2 [2]): 120 pM; EC50 of IL-2-induced pSTAT5a,b in NK-92 cells with 100 nM antibody (Recombinant human IL-2 [3]): 900 pM; EC50 of IL-2-induced pSTAT5a,b in mouse primary NK cells with 100 nM antibody (Recombinant human IL-2 [3]): 361 pM
2 | XPA.92.041 (antibody, V domains shown, Tested as purified full-length human IgG) VH: EVQLVQSGAEVKKPGESLKISCKGSGYNFDTYWIGWVRQMPGRGLEWMGTIYPADSDTRYSPSFQGQVTTSADKSISTAYLQWGSLRASDTAMYYCARFSSSAYDIWGQGTMVTVSS VL: SYELTQPPSVSVSPGQTARITCSGDALPRQFAYWYQQKPGQAPVLVIYKDTERPSGIPERFSGSSSGTTVTLTISGVQAEDEADYYCQSADSSGTYHVFGGGTQLTVLG | no binding | no binding | 40000 pM | 500 pM | 58 fold | 34 | 404 fold | 12 fold | 35 | 35 fold | 1230 fold | 4520 pM | 1150 pM | 1350 pM | 58 pM | 0.00032 s⁻¹ | 5.6e+06 M⁻¹ s⁻¹ | 3.9 fold | 35 fold | 9 | Kd (Rat IL-2 [6]): 1000 pM
3 | XPA.92.042 (antibody, V domains shown, Tested as purified full-length human IgG) VH: EVQLVQSGTEVKKAGDSLKISCKGSGYNFDTYWIGWVRQMPGRGLEWMGTIYPADSDTRYSPSFQGQVTMSADKSISTAYLQWGSLRASDTAMYYCARFSSSAYDIWGQGTMVTVSS VL: SYELTQPPSVSVSPGQTARITCSGDALPRKFAYWYQQKSGQAPVLVIYQDTKRPSGIPERFSGSSSGTTVTLTISDVQAEDDADYYCQSADRSDSYVFGAGTKLTVLG | no binding | no binding | 10000 pM | 600 pM | 156 fold | 57 | 793 fold | 14 fold | 45 | 41 fold | 1860 fold | 5120 pM | 1700 pM | 1660 pM | 28 pM | 0.00025 s⁻¹ | 8.9e+06 M⁻¹ s⁻¹ | 5 fold | 52 fold | 10 | Kd (Rat IL-2 [6]): 6000 pM
4 | XPA.92.099 (antibody, V domains shown, Tested as purified full-length human IgG; also called mAb99; clone 99) VH: QVQLVESGGGLVKPGRSLRLSCAASGFTFNRYAMSWVRQAPGKGLEWVAMISFDGGNQYYTDSVSGRFTISRDNSKTTLFLQMDSLRTEDTAVYYCVRSPAGDWVAYFDYWGQGTLVTVSS VL: DIQMTQSPSSLSASIGDRVTIPCQASEDISNHLSWYQQKPGKAPKPLIFDASDLETGVPSRFSGSGSGTDFALTISSLRPDDFATYYCHQYHDYPSYTFGHGTKLEIKR |  |  |  | 90 pM | 54 fold | 17 | 293 fold | 17 fold | 21 | 24 fold | 495 fold | 3050 pM | 463 pM |  | 44 pM | 0.00024 s⁻¹ | 5.5e+06 M⁻¹ s⁻¹ | 2.4 fold | 22 fold | 9 | binding result (Mouse IL-2 [13]): no binding (tested: IL-2 injected from 30 nM to 1 nM); binding result (Rat IL-2 [14]): no binding (tested: IL-2 injected from 30 nM to 1 nM)
5 | XPA.92.019 (antibody, V domains shown, Tested as purified full-length human IgG; also called mAb19) VH: EVQLVESGGGLVQPGRSLRLSCAASGFTFSYYGMHWVRQAPGKGLEWVADISNDGSNKYYADSVKGRFTISRDNSKTTLYLQMNSLRPEDTAVYYCATPYYDSSGLDYWGQGTLVTVSS VL: SYELTQPPSVSVSPGQTARITCSGDALPKRFAYWYQQKAGQAPVLVIYEDNKRPSGIPETLSGSSSGTTATLTISGAQEEDEADYYCYSTDNTGGLWVFGGGTKLTVLG |  | no binding | 100000 pM | 200 pM | 130 fold | 35 | 523 fold | 15 fold | 24 | 40 fold | 966 fold | 5040 pM | 900 pM | 1720 pM | 9.5 pM | 3.4e-05 s⁻¹ | 3.7e+06 M⁻¹ s⁻¹ | 5.2 fold | 33 fold | 6 | 
